In the supplement of paper PMC12042874:
± gives the uncertainty stated by the source.

Experiment: amyloid nucleation score (Sup35N fusion, yeast selection) (log enrichment); library NNK1; higher = more nucleation; inactive = no reads after selection
How it was run: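 Using DiMSum, nucleation scores were taken as the log enrichment of output over input reads, centred on the mode score of non-aggregating sequences. The input and output reads came from Illumina sequencing of plasmid inserts, with sequences under 100 input reads excluded. The yeast were psi-negative, expressed Sup35N fused to peptides of 20 random codons, were induced with 100 μM copper sulfate for 24 hours, and were grown 7 days at 30°C on medium lacking adenine and uracil.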

Row | Substance | amyloid nucleation score
1 | YMFWRGLVFKWVV | 0.667 ± 0.56
2 | SINHNGPDQLKGVPFSCSCV | inactive
3 | FIAIDLS | 1.31 ± 0.45
4 | FMISRFLAMRILRTAIWRED | 0.447 ± 0.78
5 | MDRDASYHGYIGHLLSWIGM | 0.886 ± 1.1
6 | CSLTKQRCYFEQLMSGPPCL | -0.329 ± 0.35
7 | VSRVNYNVFSVGISKSVCD | 0.201 ± 0.85
8 | KTSVL | -0.616 ± 0.39
9 | LILCCPYNFNLVLMCCPKVG | 7.268 ± 0.049
10 | GKFRYHGRAMRHSARALIYF | 0.451 ± 0.42
11 | GAQATFEVHCLERTVWVYR | -0.691 ± 1.4
12 | VLQQGTSLTKYV | 0.509 ± 0.42
13 | CVPDGKFRSKRIPGRNFPLL | 0.278 ± 0.42
14 | PLCSNRIERMLLSVGCGRRR | -0.416 ± 0.44
15 | SDKAMHCGCVLH | -0.891 ± 0.56
16 | MLFPSVSKRLNVSALNCKNP | -0.083 ± 1.4
17 | INYGMRCYEE | -0.427 ± 1.2
18 | RGMGVAWAYLSSNTRPRRLN | 0.792 ± 0.76
19 | SMGLKPGEVCLNKDFDSH | 0.036 ± 1.2
20 | GYWPNKRWSRMKPIYPHSNV | 1.34 ± 0.18
21 | SSFYTRFWVGSHMCFAGMPK | 0.203 ± 1.2
22 | MQVNIVGVSILVAWPR | 6.48 ± 0.071
23 | LPSDSFAVI | 0.483 ± 0.81
24 | SRYRA | 5.11 ± 0.076
25 | IVVVGD | -1.63 ± 1.3
26 | IQWGEKNGCGHLGQFMWYDG | 0.193 ± 0.58

Row | Substance | amyloid nucleation score
27 | IHVAFHSLSQCGRCVYCSVL | 3.25 ± 0.16
28 | KGWKTVVHCRDYGQVNNFGS | 2.22 ± 0.14
29 | DFSCGRMGFALERSLAMYRA | 0.041 ± 0.53
30 | DGSYTWWAFGSIQRCEGLTV | 0.177 ± 0.47
31 | RQRTIFWLMFWELAMFNCHM | -0.423 ± 0.74
32 | NRRVCEVR | -0.148 ± 1.1
33 | CSGCQARIWALDRRRRVEVS | 0.213 ± 0.69
34 | TGRMGLTNRSEEFLSFLADS | -1.45 ± 0.89
35 | CRTCRNQRMKDKSELSWLMS | -0.589 ± 0.6
36 | AIAIPDRCLFYATRFSCDSR | inactive
37 | DFYYNALIREVGQ | -0.825 ± 0.75
38 | FYISNMM | -1.35 ± 0.74
39 | YSMHKLSVFRRTYSVTISRT | 0.591 ± 0.55
40 | QYEALLPLTKKNRTNTWQRQ | inactive
41 | PNMARHPFYEDMCFTVDVTN | -1 ± 0.44
42 | YCGGY | 2.9 ± 0.087
43 | QFGWFWFLNYALQDFDN | -0.696 ± 0.75
44 | ASWFLVISTSLVYHSATADR | 0.211 ± 0.39
45 | NALRVV | -0.637 ± 0.68
46 | NLDYDVESRVTEVWGVLSGC | 1.92 ± 0.56
47 | DSLFTIYMNSISFR | 5.83 ± 0.093
48 | GRVVAHLNRRHR | 1.38 ± 0.43
49 | LYIGIPYVGVWNL | 0.282 ± 1.2
50 | RCPYSYHGYSVNNWGSAWT | 0.487 ± 0.54
51 | FHVVSFQGETCDHRIGRIVY | 0.002 ± 0.33
52 | NQDFLTLALKWRCECFHTKL | -0.247 ± 1.9

Row | Substance | amyloid nucleation score
53 | GFARLLLRRVHRAIISHFRF | -0.617 ± 0.45
54 | DLFSTVFNWMTNCPFKNSW | -0.32 ± 0.49
55 | YVSLLYLLWLI | -0.326 ± 0.32
56 | WTRSM | 0.018 ± 0.41
57 | RNTFHFNNMALPVLQT | -1.23 ± 0.77
58 | HLECFRLRLPFTNCDVYVRS | 0.845 ± 0.54
59 | MYMGAPSIVVIVMLQNMKFV | 2.34 ± 0.32
60 | FHICGFRYSHLGREPMKFGI | 2.23 ± 0.19
61 | YSYFWVAWF | 0.329 ± 0.4
62 | CYCNEKIVTMRAIDIVRFTC | -0.556 ± 0.23
63 | KGELLGDWGAIYHWCF | inactive
64 | MEWDAYVMI | 0.442 ± 0.84
65 | SGAPLDAGFNIA | 0.227 ± 0.49
66 | YCCYAVRACFN | 7.509 ± 0.057
67 | VDRLAEMHTLEWARSVRLSV | 0.55 ± 0.92
68 | EGSQLSPAWFGYRDDGFTTM | 0.904 ± 1
69 | FIFWGDLFWV | -0.992 ± 0.32
70 | RTMHVRFDIRKVALKIFKFY | 1.3 ± 0.4
71 | VKFMMRLDYYCPLSTVQTTA | -0.644 ± 0.36
72 | GVESLLCYASPLVSWAIFAD | -0.424 ± 0.28
73 | RCSFFSYCVNDAS | 3.55 ± 0.12
74 | SFKYWNIRHKYFRTSLT | -0.152 ± 0.4
75 | CRVPIRCRGDLLSLRAVRFR | 1.88 ± 0.14
76 | SFDGLYLNSCRFSLPCLLSR | 0.196 ± 0.26
77 | SYVDRVLSSRSRWMKIVELN | 0.083 ± 0.44
78 | RHIFIRGIVYCCVSTFRFPS | -0.218 ± 0.27

Row | Substance | amyloid nucleation score
79 | YMVLVDLRTGRIHGSAGEKR | -0.174 ± 0.5
80 | WPLLPVELNVSTRHENGLLM | 1.4 ± 0.34
81 | FPCSRIELVVSVCVAWVNSC | 1.42 ± 0.28
82 | STGPNLKVLVSSKS | -1.66 ± 0.69
83 | TICVYSG | 0.008 ± 0.49
84 | YRAAQGHLASELYGLVTV | 0.36 ± 0.69
85 | LIEDHVLYHVRAKKYRSHYI | -0.381 ± 0.79
86 | FFAHNRTMSRRNQAFGF | 0.86 ± 1.1
87 | LYWSQIEVVNPQTTEGLNRD | -0.528 ± 0.61
88 | SINSRKSFMFIF | 2.39 ± 0.16
89 | GILFALSIVRDDYFC | -0.215 ± 0.19
90 | HYTFKDCSSPLSWEPQPLFP | -0.32 ± 0.83
91 | PIKAPLGASCGFAVRVTRTM | 0.391 ± 0.46
92 | NCMKLLEQRGGCLQANGF | 2.09 ± 0.15
93 | LISFEHEFKRCHCALVTWT | -0.048 ± 0.3
94 | LKCRLLVQTQLSESRGMWTS | 0.316 ± 0.7
95 | TFYLFSRGSSLEIWG | 5.72 ± 0.059
96 | VTDFVALFVIGTGPVVGLRW | 1.27 ± 0.43
97 | GYEVKMHYSVLIINNSCPCL | 0.95 ± 0.25
98 | YVLMPWSFLLHGMRNLTAMS | inactive
99 | IRCRQQARTMYNKMEKMGRG | -0.433 ± 0.3
100 | ENEAGATYDGMMVVGSELSS | 0.997 ± 0.43
101 | SFSHVYFYGVPYGQVPYRSV | 1.5 ± 0.28
102 | FRRYLWFRDRPGFCCFRLMQ | -0.46 ± 1.5
103 | CRTTHQALRWIHMDYYYSWV | -0.327 ± 0.31
104 | GMAWSRSLRVGHSGIMGRAV | 0.189 ± 0.22

Row | Substance | amyloid nucleation score
105 | AYVASFTSIRCRAHHAPLSK | -0.366 ± 0.3
106 | QMGELSSYRLFGIRTFRF | -0.02 ± 0.81
107 | QNDTYLI | 0.022 ± 1.1
108 | VKTHSVFSMMVV | 0.558 ± 0.51
109 | GVFEPCRVRSFMHIVSIADR | -0.306 ± 1.7
110 | FSRSTQVSER | 1.38 ± 0.61
111 | FVPIDLGNGK | 0.564 ± 0.51
112 | SFVSRGCSYCC | -0.489 ± 0.59
113 | KVLMTAGFYVVLRALKHRTK | 1.51 ± 0.34
114 | GTWNF | -0.023 ± 0.55
115 | GWGLA | inactive
116 | LHDQCLAHGQWCNTWGK | -0.022 ± 0.39
117 | KSVVLHWYAYSMLYPLWNLV | 0.511 ± 0.53
118 | TTPIEAV | -0.178 ± 1.2
119 | FRGSRELNMSSQGVGACLIR | -0.399 ± 0.88
120 | FCSNPAGWSSWSPE | 0.182 ± 0.9
121 | WDTDVLRDNWSQLRFLVSGR | -0.216 ± 0.21
122 | LLLSSLTDFHVVDRLIKQAW | -0.003 ± 0.41
123 | NKQARVRETRVGLTCVGMLG | -0.321 ± 1.2
124 | CDYVKRLDNLLGYPLWWGRW | 0.22 ± 0.34
125 | KFIVMIE | 0.386 ± 0.22
126 | AIQYHNWGSEACLWHERESG | 0.225 ± 0.26
127 | RRGLCGNAKAIIRGLAQGWD | -1 ± 1.2
